Results taken from article PMC3293846, “Optimization of Time-Course Experiments for Kinetic Model Discrimination” (PLoS ONE, 2012).

Substrate: CC(=O)C=O
Assay: purified protein
Assay type: biochemical, Saccharomyces cerevisiae
Conditions: two-substrate sequential model (model 2), co-substrate glutathione, 70 mM potassium phosphate pH 6.5, 30°C, no glyoxalase II

B1: yeast glyoxalase I (EC 4.4.1.5); glyoxalase I from Saccharomyces cerevisiae (Sigma) (Saccharomyces cerevisiae S288C) (protein)
chain: MSTDSTRYPIQIEKASNDPTLLLNHTCLRVKDPARTVKFYTEHFGMKLLSRKDFEEAKFSLYFLSFPKDDIPKNKNGEPDVFSAHGVLELTHNWGTEKNPDYKINNGNEEPHRGFGHICFSVSDINKTCEELESQGVKFKKRLSEGRQKDIAFALGPDGYWIELITYSREGQEYPKGSVGNKFNHTMIRIKNPTRSLEFYQNVLGMKLLRTSEHESAKFTLYFLGYGVPKTDSVFSCESVLELTHNWGTENDPNFHYHNGNSEPQGYGHICISCDDAGALCKEIEVKYGDKIQWSPKFNQGRMKNIAFLKDPDGYSIEVVPHGLIA
notes: no tags or mass told
With B1 the Km was 1200 ± 190 µM and the kcat was “(1.7±0.38)×10^5 min^−1”.
